In assay [1] the target is T1, Human dendritic cell–specific ICAM-3–grabbing non-integrin (DC-SIGN; CD209), Q9NNX6.
T1 chain: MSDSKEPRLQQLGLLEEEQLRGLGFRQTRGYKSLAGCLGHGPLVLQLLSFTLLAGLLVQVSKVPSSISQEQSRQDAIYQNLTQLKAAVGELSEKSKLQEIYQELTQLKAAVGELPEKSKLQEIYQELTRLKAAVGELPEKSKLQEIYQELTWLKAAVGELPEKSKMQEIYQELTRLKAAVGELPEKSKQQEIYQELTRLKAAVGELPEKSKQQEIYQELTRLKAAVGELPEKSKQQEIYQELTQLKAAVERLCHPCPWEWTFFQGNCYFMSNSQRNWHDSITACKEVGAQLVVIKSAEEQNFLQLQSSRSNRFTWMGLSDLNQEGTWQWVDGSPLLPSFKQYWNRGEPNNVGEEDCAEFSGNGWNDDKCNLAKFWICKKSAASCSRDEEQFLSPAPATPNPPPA
Briefly: flow cytometry on cells (hDC-SIGN+/SIGN-R1-/- murine BMDMs). Conditions: type I FcγRs blocked; PBS control = 1; read off a plot. For orientation: Flow cytometry measures light scatter and fluorescence of single cells or particles in a stream.

For assay [2], the target named is Human neonatal Fc receptor (hFcRn), P55899. In words: SPR; biolayer interferometry (citing paragraph). As to conditions: chain shown with the change. Background: Surface plasmon resonance follows binding to a sensor surface in real time, without labels.
Sequence of Human neonatal Fc receptor (hFcRn), P55899 (P55899 24-297, chain 1 of 2): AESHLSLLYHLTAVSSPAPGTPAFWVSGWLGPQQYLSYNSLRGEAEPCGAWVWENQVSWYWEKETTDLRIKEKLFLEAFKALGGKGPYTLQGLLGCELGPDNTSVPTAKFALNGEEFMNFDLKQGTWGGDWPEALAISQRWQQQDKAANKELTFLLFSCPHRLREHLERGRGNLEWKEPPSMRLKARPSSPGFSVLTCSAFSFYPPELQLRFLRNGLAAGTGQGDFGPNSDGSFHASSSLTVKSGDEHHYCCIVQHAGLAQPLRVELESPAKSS
Sequence of Human neonatal Fc receptor (hFcRn), P55899 (chain, as listed by the source, chain 2 of 2): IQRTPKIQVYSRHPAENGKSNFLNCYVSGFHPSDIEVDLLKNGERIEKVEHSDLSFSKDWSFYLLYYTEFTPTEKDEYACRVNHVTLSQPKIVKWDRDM

B1: Wild-type human IgG1 Fc (Fc^WT) M252Y; S254T; T256E; H433K; N434F (protein)
chain: DKTHTCPPCPAPELLGGPSVFLFPPKPKDTLYITREPEVTCVVVDVSHEDPEVKFNWYVDGVEVHNAKTKPREEQYNSTYRVVSVLTVLHQDWLNGKEYKCKVSNKALPAPIEKTISKAKGQPREPQVYTLPPSRDELTKNQVSLTCLVKGFYPSDIAVEWESNGQPENNYKTTPPVLDSDGSFFLYSKLTVDKSRWQQGNVFSCSVMHEALKFHYTQKSLSLSPGK
As usually defined, the Kd is a measure of binding affinity in units of concentration. The low end stands for a tighter complex, the high end for a looser complex. Regarding B1, in assay [1], the response (fold change in MFI (normalized to PBS)) turned out to be 1.4. The molecule also displayed a Kd in assay [2] of 5.2 nM.

(Values after PMC10866649.)
